In patent US10669350B2, “Antigen-binding constructs that bind to and inhibit catalase and/or superoxide dismutase as well as pharmaceutical compositions containing them for tumor therapy” (priority 2015, dated 2020):
“Also recorded” adds a separate entry of the source.

Legend:
[1] = tested on: MKN-45 gastric carcinoma cells; assay: Standard preparation for autocrine ROS-controlled apoptosis induction in tumor cells (percentage of apoptotic cells); type: cell-based, human; settings: for apoptosis induction in MKN-45 cells: increasing concentrations, 3-4 hours at 37° C., 5% CO2
Method: (§1) The experiments shown in FIG. 13-24 were carried out with a standard preparation for the apoptosis induction that is based on the method performed in Heinzelmann and Bauer 2010. The tumor cells used were taken from an optimally growing semi-sealed culture, centrifuged and placed in fresh medium. The test was performed in 96-well cell culture plates with 12 500 MKN-45 cells/100 μl medium or 10 000 SHEP cells/100 μl medium. MKN-45 cells grow in suspension, SHEP cells are adherent. The tests with SHEP cells were started as soon as the cells had grown on. By adding increasing concentrations of single domain VHH fragments that either inhibit catalase or SOD the protection of the tumor cells from their own ROS signaling was annulled so that based on the cell-owned extracellular superoxide anion production the NO/peroxynitrite signal path and the HOCl path (with MKN-45 cells) or in case of the SHEP cells only the NO/peroxynitrite path could start when the cells were incubated at 37° C. The analysis of the signal paths was carried out by the application of inhibitors of the NADPH oxidase (AEBSF), the HOCl scavenger taurine, the peroxynitrite scavenger FeTPPS and the singlet oxygen scavenger histidine. In some experiments for comparison instead of the single domain VHH fragments either recombinant Fab fragments or monoclonal antibodies were applied. This is indicated in the respective illustrations.
Double preparations were examined at the times shown in the text by means of phase contrast reverse microscopy for the percentage of apoptotic cells. Here, the classical apoptosis criteria described and documented in Heinzelmann and Bauer 2010 such as condensation of the nucleus, fragmentation of the nucleus, and membrane blebbing were used. Per single preparation at least 250 randomly selected cells were examined for the presence of apoptosis features. […]

[2] = tested on: human neuroblastoma line SHEP; assay: Standard preparation for apoptosis induction in SHEP cells (percentage of apoptotic cells); type: cell-based
Method: as §1
Double preparations were examined at the times shown in the text by means of phase contrast reverse microscopy for the percentage of apoptotic cells. Here, the classical apoptosis criteria described and documented in Heinzelmann and Bauer 2010 such as condensation of the nucleus, fragmentation of the nucleus, and membrane blebbing were used. Per single preparation at least 250 randomly selected cells were examined for the presence of apoptosis features.
10 000 cells of the human neuroblastoma line SHEP per 100 μl medium were mixed with the given concentrations of the catalase-neutralizing single domain VHH fragment aCATcb0972, the SOD-neutralizing single domain VHH fragment aSOD0989, the SOD-binding but not neutralizing single domain VHH fragment aSODcb991 and the hybrid molecule aCATaSOD and incubated for 5 hours at 37° C., 5% CO2, before percentages of apoptotic cells were determined.
10 000 cells of the human neuroblastoma line SHEP per 100 μl medium were mixed with the given concentrations of the SOD-neutralizing single domain VHH fragment aSOD0989. Parallel preparations received 20 μM or 100 μM of the NO donor sodium nitroprusside or were incubated without a further additive. After 5 hours at 37° C., 5% CO2 the percentages of apoptotic cells were determined.

human catalase [3] = target: T1, human catalase (Homo sapiens, UniProt P04040); assay: ELISA selection of clones binding to human catalase
T1 sequence (P04040 2-527 limits assumed): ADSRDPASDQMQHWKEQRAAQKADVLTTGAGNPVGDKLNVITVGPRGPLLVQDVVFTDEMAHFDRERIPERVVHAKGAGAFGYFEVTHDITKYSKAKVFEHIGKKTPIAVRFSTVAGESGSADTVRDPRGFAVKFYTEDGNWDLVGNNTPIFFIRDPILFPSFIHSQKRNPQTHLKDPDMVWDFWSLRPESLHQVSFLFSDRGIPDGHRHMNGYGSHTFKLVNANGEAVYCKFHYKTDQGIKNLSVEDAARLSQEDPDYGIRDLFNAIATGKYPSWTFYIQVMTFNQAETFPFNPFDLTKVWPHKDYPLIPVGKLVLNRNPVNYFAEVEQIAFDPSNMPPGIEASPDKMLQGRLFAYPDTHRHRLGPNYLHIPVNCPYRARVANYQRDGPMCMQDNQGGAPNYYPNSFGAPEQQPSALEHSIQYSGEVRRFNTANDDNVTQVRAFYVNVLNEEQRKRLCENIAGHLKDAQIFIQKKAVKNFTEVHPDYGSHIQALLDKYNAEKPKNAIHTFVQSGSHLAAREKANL
From the text: […] […] In a second run, by employing the cell culture system described by Heinzelmann and Bauer (Heinzelmann S. and Bauer G. Multiple protective functions of catalase against intercellular apoptosis-inducing ROS signaling of human tumor cells, Biol. Chem. 391, 675-693, 2010) it was checked which one of the single domain VHH fragments binding to catalase actually results in an inhibition of the catalase, what is expressed as ROS-dependent apoptosis induction in the cells. […] The clones underlying the single domain VHH fragments were sequenced by standard methods and the amino acid sequence was determined therefrom.

human catalase [4] = target: T1, human catalase; assay: Check for inhibition (neutralization) of catalase, expressed as ROS-dependent apoptosis induction in cell culture system; type: cell-based; design: catalase-neutralizing single domain VHH fragments only neutralize the membranous catalase of tumor cells; endogenous in cells; host or cells: MKN-45 human gastric carcinoma cells
From the text: For the determination of the neutralizing effect of single domain VHH or Fab fragments directed against catalase a test system is suitable that is based on the apoptosis-inducing effect of H2O2 and the degradation of H2O2 by catalase. Here, as the cellular test system both non-malignant and malignant cells can be employed. It is only required that apoptosis induction is quantitatively determinable in the selected cell system. As the H2O2 source, H2O2-generating glucose oxidase (GOX) is preferred over the direct addition of H2O2, because the continuous production of H2O2 by GOX (by using glucose from the culture medium of the cells) allows a very precise adjustment of the H2O2 flux. The test system is based on the inhibition of the apoptosis induction by GOX mediated by catalase and the restoration of the apoptosis induction by catalase-neutralizing single domain VHH or Fab fragments. […] For that, in general depending on the cell system, GOX concentrations between 0.1 and 40 mU/ml are required. In a second step, the concentration of human catalase is determined that is just sufficient to abolish the effect achieved by GOX. […] After successful determination of the suitable concentrations of GOX and catalase then the actual experiment for the determination of the catalase-neutralizing effect of single domain VHH or Fab fragments can be performed. For that, the selected catalase concentration is pre-incubated for 20 minutes with selected concentrations of the single domain VHH or Fab fragments to be tested. Subsequently, said mixture together with the concentration of GOX determined to be suitable is added to the cells and apoptosis induction is measured. A reliable neutralizing effect of the single domain VHH or Fab fragments is obtained if the inhibiting effect of the catalase on the GOX-mediated apoptosis induction was abolished by at least 90%, i.e. if 90% of the apoptosis induction value is achieved that is shown in control preparations without addition of catalase. If there is achieved an abolition of the inhibiting effect of catalase of at least 50% there may be assumed a significant inhibiting effect of the tested single domain VHH or Fab fragment. […]
[…] In a second run, by employing the cell culture system described by Heinzelmann and Bauer (Heinzelmann S. and Bauer G. Multiple protective functions of catalase against intercellular apoptosis-inducing ROS signaling of human tumor cells, Biol. Chem. 391, 675-693, 2010) it was checked which one of the single domain VHH fragments binding to catalase actually results in an inhibition of the catalase, what is expressed as ROS-dependent apoptosis induction in the cells. […] The clones underlying the single domain VHH fragments were sequenced by standard methods and the amino acid sequence was determined therefrom.

[5] = Table 2, FIG. 20 experiment, 3.5 hours

CC(=O)O[C@H]1C(=O)[C@@]2(C)[C@H]([C@H](OC(=O)c3ccccc3)[C@]3(O)C[C@H](OC(=O)[C@H](O)[C@@H](NC(=O)c4ccccc4)c4ccccc4)C(C)=C1C3(C)C)[C@]1(OC(C)=O)CO[C@@H]1C[C@@H]2O [taxol, reference compound]
displacement of the required taxol concentration by neutralizing single domain VHH fragments ([1]; 4 hours): less than a thousandth
optimum effect concentration of taxol alone ([1]; 4 hours): 1100 ng/mL
apoptosis induction in MKN-45 cells [1]: induces apoptosis in the tumor cells in a concentration-dependent manner

B1: aCATaSOD: bispecific hybrid single domain VHH fragment of cb 0972 and cb 0989 connected via a linker; SEQ ID NO: 17 (protein)
VHH: MAQVQLVESGGGLVQAGGSLRLSCAASERTFNTYGMGWFRQAPGKEREFVATISWSGDSTYYADSVKGRFTISRDNAKNTMYLQMNSLKPEDTAVYYCNANSEYGDSYWGQGTQVTVSSGGGGSGGGGSGGGGSAQVQLVESGGGLVQSGGSLTLSCTASGFTISNYPMTWVRQAPGKGLEWVSRINSGGDRTLYADSVKGRFTVSRDNARNTMYLQMNNLKPEDTGLYFCADSGAGWRYWGQGTQVTVSSKKKHHHHHH
modifications: bispecific
apoptosis induction after siRNA-mediated knockdown of FAS receptor or caspase-8 ([1]; 24 nM siRNA, four hours): does not require the FAS receptor and its downstream caspase-8; also recorded: prevents the supra-optimum drop of the apoptosis induction curve
apoptosis induction after siRNA-mediated knockdown of NOX1, iNOS2 or caspase-9 ([1]; 24 nM siRNA, four hours): completely prevents the apoptosis induction
apoptosis induction in the presence of peroxynitrite scavenger FeTPPS ([1]; 25 μM FeTPPS): complete inhibition by FeTPPS
apoptosis induction in the presence of NOX1 inhibitor AEBSF ([1]; 100 μM AEBSF): completely prevented
apoptosis induction in the presence of singlet oxygen scavenger histidine ([1]; 2 mM histidine): attenuating effect on the right-side drop of the optimum curve
apoptosis induction in the presence of HOCl scavenger taurine ([1]; 50 mM taurine): no inhibition by taurine
optimum conc. [1, 5]: 2.4e-07 ng/mL
apoptosis induction in MKN-45 cells [1]: gradually superior over the reverse arrangement
ROS signaling path induced ([1]; inhibitor analysis): exclusively the NO/peroxynitrite path
efficacy compared with single domain VHH fragments directed against one target structure ([2]; 5 hours): much more effective
apoptosis induction in SHEP cells ([2]; 5 hours at 37° C., 5% CO2): can induce concentration-dependent apoptosis

B2: monoclonal aCAT: neutralizing conventional monoclonal antibody against catalase (Sigma) as a control (protein)
VHH: MAQVQLVESGGGLVQAGGSLRLSCAASERTFNTYGMGWFRQAPGKEREFVATISWSGDSTYYADSVKGRFTISRDNAKNTMYLQMNSLKPEDTAVYYCNANSEYGDSYWGQGTQVTVSSKKKHHHHHH
optimum effect concentration (text, FIG. 20) ([1]; 3.5 hours): 111 ng/mL
relation to opt. conc. single domain Fab ([1]; Table 1, concentration basis, versus the corresponding single domain VHH): 277 500
optimum conc. ([1]; Table 1, concentration necessary for optimum apoptosis induction, taken from FIGS. 13A, 13B, 15A, 15B, 20): 111 ng/mL
relation (molar basis) ([1]; Table 1, versus the corresponding single domain VHH): 46 250
optimum conc. [1, 5]: 111 ng/mL
relation to opt. conc. hybrid Fab ([1]; Table 2, concentration basis, versus hybrid aCATaSOD): 4.6 × 10^8
relation (molar basis) ([1]; Table 2, versus hybrid aCATaSOD): 1.54 × 10^8

B3: aCATcb0974: single domain VHH fragment that binds to and neutralizes human catalase; SEQ ID NO: 12 (protein)
VHH: MAQVQLVESGGGLVQPGGSLRLSCAASGSIFSIASMGWYRQAPGKQRDLVATITSDGSTKYADSVKGRFTISRDNAKNTMYLQMNSVKPEDAAVYYCNADADDLEPGSYDYDYWGQGTQVTVSSKKKHHHHHH
modifications: catalase binding
binding to human catalase (human catalase [3]): bind to human catalase
neutralization (inhibition) of human catalase (human catalase [4]): neutralize it

B4: aCATcb0973: single domain VHH fragment binding to human catalase, but not neutralizing; SEQ ID NO: 11 (protein)
VHH: MAEVQLVESGGGLVQPGGSLRLSCAVSGFIFNTYSMRWGRQAPGKGLEWVSSISTGGYSTYADSVKGRFTISRDNAKNLVYLQMNSLKPEDTAVYYCGWGAFVRGERPQGQGTQVTVSSKKKHHHHHH
modifications: catalase binding
binding to human catalase (human catalase [3]): bind to human catalase
neutralization (inhibition) of human catalase (human catalase [4]): do not neutralize it

B5: aCATcb0975: single domain VHH fragment binding to human catalase, but not neutralizing; SEQ ID NO: 13 (protein)
VHH: MAQVQLVESGGGLVQPGGSLRLSCAASASIFSIYVMAWYRQAPGKQRELVATVTSGGATNYANSVKGRFTISRDNAKNTMDLQMNSLKPEDTAVYYCNAEDYYDYGLSRSKIYWGQGTQVTVSSKKKHHHHHH
modifications: catalase binding
binding to human catalase (human catalase [3]): bind to human catalase
neutralization (inhibition) of human catalase (human catalase [4]): do not neutralize it
